# Experimental data taken from the supplement of paper PMC9170038.
# Assays:
# MS2 coat protein [1] = experiment: apparent KD of MS2 coat protein, switch OFF state (with FMN for OFF switches, without FMN for ON switches); designed switch direction (-1 OFF switch, 1 ON switch): -1; higher = weaker reporter binding; details: FMN input: 0 or 200 uM; Eterna round: R93 (includes R88 designs)
# Method in brief: (§1)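 Illumina sequencing clusters served as templates for on-chip transcription of the designed RNA switches. SNAP-549-labelled MS2 coat protein was then titrated in twofold steps from 0.7 or 1.5 nM to 3 µM, allowing 0.8–1.5 h per step at first and 10–20 min per step later. The buffer held 100 mM Tris-HCl pH 7.5, 80 mM KCl and 4 mM MgCl2, without or with constant ligand. Apparent KD is the median per design of normalised cluster binding-curve fits.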
# MS2 coat protein [2] = experiment: apparent KD of MS2 coat protein, switch ON state; designed switch direction (-1 OFF switch, 1 ON switch): -1; higher = weaker reporter binding; details: FMN input: 0 or 200 uM; Eterna round: R93 (includes R88 designs)
# Method in brief: as §1
Sequence,apparent KD of MS2 coat protein (MS2 coat protein [1]),apparent KD of MS2 coat protein (MS2 coat protein [2])
UCCGGACAUGAGGAUCACCCAUGUGAGGAUAUAUAACGUGGGACUGGAAACAAUCCCAAUAGAAGGCACAUGAC [Reisatridi],20.2 nM,21.5 nM
UACAGACAUGAGGAUCACCCAUGUGAGGAUAUUCAUAACGAUAUUACAAGUAUGACAGGAAGAAGGCACAGCAA [JR_Exc001_Sub010],47.5 nM,45 nM
AUCAUGUAAGGAUAUAAAAGAAAAGAAAAGAAAGAAAAGAAUUAGAAGGUACAUGAGGAUCACCCAUGUAAGAA [EteRNA is fun!],17.9 nM,30.3 nM
AAACCACAUGAGGAUCACCCAUGUAAGGAUAUGAACGAAAUAAAAUAAAAAUAAAAGUUCAGAAGGUACAAAAA [Mat - Exclusion 1 - Eli mod - D22],22.1 nM,22.6 nM
GAAAAGUGAGGAUAUUCGGAUAGGAAAACGAAAACCUAUCCGAAGAAGGCACAUGAGGAUCACCCAUGUGAAAG [Mat - Exaclusion 4 - Eli mod - D43],30.9 nM,28 nM
"AGCAAGUCAGGAUAUACGAACAAGACAAAAGACGAGAAGGGACAUGAGGAUCACCCAUGUAGAAGGGACAAGCA [74%, Web mod - With 5 less U's]",60.8 nM,61.9 nM
AGUCGGCGAGGAUAUACAUGAGGAUCACCCAUGUGAGAGAAAAAAGUGAGUUAGACAUGUAGAAGGCGCUGACA [JL Lego Mod 8],26.8 nM,54 nM
AUAGGCCUAGGAUAUACAUGAGGAUCACCCAUGUAAACCGAUAGAUCACGGUAAACGUGUAGAAGGAGGAAUAA [JR_Exc003_Sub207],20.6 nM,24.4 nM
AACUGGCUAGGAUAUACGUAAUAAAAUAUCAGUGAGAUUUCACAUGAGGAUCACCCAUGUAGAAGGAGCAAAAU [Esxereorar],16.6 nM,24.5 nM
ACAGUUACAGGAUAUACAAAGGUAACUUCAAAGAAAACUCUACAUGAGGAUCACCCAUGUAGAAGGGUAACUGA [Ex2 Design 200 (probably): Random 17],18.2 nM,14.3 nM
AACAGGGCAGGAUAUACAUGAGGAUCACCCAUGUAGGAAACAAGCAGAGUACCAAAAAGUAGAAGGGUCAUGGA [Ruby 31],33.1 nM,30.2 nM
AGCAAGUGAGGAUAUGCGAAGUCAGGACAAACACUGACGAAGCAGAAGGCACAUGAGGAUCACCCAUGUAAGCA [Mat - Exaclusion 4 - Eli mod - D60],29.8 nM,28.8 nM
AACAGUACAGGAUAUACAUGAGGAUCACCCAUGUGAAAAUUAAGUGGAGUACCACAAGGUAGAAGGGUACUGGA [Mat - Exclusion 3 - Eli mod - D61],101 nM,27.7 nM
AUCGAUCGAGGAUAUACAUGAGGAUCACCCAUGUAAAAAAAAAAAAAGGCCUCAGGACGUAGAAGGCGACGCAA [JR_Exc003_Sub402],22.6 nM,16.3 nM
AAGAACUGAGGAUAUACACAAGAAAAGAAAAGAAAGAAAGAACAUGAGGAUCACCCAUGUAGAAGGCGGAAGAA [Merhotepre Sobekhotep V],26.5 nM,39.3 nM
AAGCUGGUAGGAUAUACUAGGGCAACUAAUGCACCGAGAGGACAUGAGGAUCACCCAUGUAGAAGGGCCAGAAA [Mat - Exclusion 2 - JL mod - D63],82.3 nM,114 nM
AGAAUACAUGAGGAUCACCCAUGUGAGGAUAUAUGAAGAAAAAGAAAAGAAAAGAAACAUAGAAGGCACAAAAG [EX 1 May 16],86.7 nM,16.1 nM
GAAAACAGAGGAUAUACAUGAGGAUCACCCAUGUAAAAAUGUAGAAGGCUGAAAGAAAGAAGAAGGAAAGAAAA [Meechl Ex3 R2 m2],28.3 nM,24.2 nM
AGUCCAGAAGGAUAUACAUAGGUGAAAAAAAAAAAAAAACUACAUGAGGAUCACCCAUGUAGAAGGUCUGGACA [Mod of Brourd],25.5 nM,58.6 nM
AAGGUACGAGGAUAUACAUAGAUACAGACACAUGUAGAUGUACAUGAGGAUCACCCAUGUAGAAGGCGUAUAUA [AJ 20],97.5 nM,60.7 nM
AAAACGUGAGGAUAUGCACCAAAAAAGGUAAAACGGGUACGACAUGAGGAUCACCCAUGUAGAAGGCACGAAAA [Frodo Flailing 10 - Jieux - Exclusion 2],107 nM,46 nM
AAGAGUACAGGAUAUAUGUGAAAAGAGUCGAAAGACUCGGGACAUGAGGAUCACCCAUGUAGAAGGGUACUCAA [Diamond 75],79.7 nM,75.7 nM

Sequence,apparent KD of MS2 coat protein (MS2 coat protein [1]),apparent KD of MS2 coat protein (MS2 coat protein [2])
AAAAAGAUAGGAUAUACGAACAUGUCGAAAGACGUGAAGGGACAUGAGGAUCACCCAUGUAGAAGGAUUAAAAA [Mat - Exclusion 2 - JL mod - D89],16.8 nM,41.9 nM
AAGAAGCUAGGAUAUACAUGAGGAUCACCCAUGUAAAAGAAAGAGGGAAAAGAGAAAAGUAGAAGGAGCAAGAA [Cleopatra I],25.4 nM,27.8 nM
AAGUAUAGAGGAUAUACAUAGAUACAGAUUCAUGUAGAACUACAUGAGGAUCACCCAUGUAGAAGGCUAUAAUA [AJ 34],27.9 nM,19.4 nM
AACAUGUUAGGAUAUAGAAGAAAAGAAAAGAAAGAAAAGAACUAGAAGGAACAUGAGGAUCACCCAUGUAAGAA [EteRNA is fun!],26.1 nM,30.9 nM
AAAAGGUGAGGAUAUACAUGAGGAUCACCCAUGUAGAAAGGAAGUGUAAAAAAAAAGUGUAGAAGGCAUCAUGA [MS2 Riboswitches On Chip Exclusion 3 wbt3],48 nM,39.2 nM
GAAGAACAUGAGGAUCACCCAUGUCAGGAUAUGCAGAAGGGAAUAAUAACCUCUGGAAGCAGAAGGGACAAGAA [Ex 1 May 48],59.4 nM,33.5 nM
ACCUAACAUGAGGAUCACCCAUGUGAGGAUAUAGACGUGAAUUAAACACGUAACAAAACUAGAAGGCACUGGGC [Erbeardi],16.8 nM,26.1 nM
AAGAAGUUAGGAUAUACAAAAUAAAAGAAAAGAAAGAAAGAACAUGAGGAUCACCCAUGUAGAAGGGACAAGAA [Nubkaure Amenemhat II],33.9 nM,59.2 nM
AAAAAGGCAGGAUAUACAAAAAAAAAAAAAGAGGAGGAGGGACAUGAGGAUCACCCAUGUAGAAGGGCCAAAAA [William Edward Burghardt 'W. E. B.' Du Bois],63.7 nM,35.4 nM
AAAAAACAUGAGGAUCACCCAUGUCAGGAUAUACAAAAGAAAAGAAAAAGAAAAGAAAGUAGAAGGGACAAAAA [mod1],24.6 nM,23 nM
CGCAAGUCAGGAUAUUCGACAGGUAAAUCAGUGGAUCAGAAGGAGAAGGGACAUGAGGAUCACCCAUGUAUGUA [JR_Exc004_Sub407],23.1 nM,49.4 nM
AAAAAUGGAGGAUAUACAUGAGGAUCACCCAUGUGAGACCAAGAAAAAGAAAAAGAAAGUAGAAGGCCAUAAAA [Ex 3 May 24],152 nM,24.5 nM
GUAAACCUAGGAUAUACAUGAGGAUCACCCAUGUAAAAAAUAAUAAAAAGAAAAAAAAGUAGAAGGAGGUAGAU [JR_Exc003_Sub1226],44 nM,29.1 nM
AUAAAUCGAGGAUAUACAUGAGGAUCACCCAUGUAAAAAAAAAAAAAAUCCUCAGGAAGUAGAAGGCGAAAUAA [JR_Exc003_Sub018],23.3 nM,11.7 nM
AAAAGGAUAGGAUAUACAUGAGGAUCACCCAUGUUUAUAAAUAAAAGAAAUAAAGAAAGUAGAAGGGUCAAGAA [LROPPY Exclusion 3 - v07_deltaG=3.4],22.4 nM,19.6 nM
AAAAAGGUAGGAUAUACGAAAAAAAAAAGGUGAAAAAAAAAACAUGAGGAUCACCCAUGUAGAAGGACCAAAAA [Ex 2 sub 1 70% 3],62 nM,36.5 nM
AAAAAACAUGAGGAUCACCCAUGUGAGGAUAUCAGUAGUCAGUCCUCGGAGUGAGUACUGAGAAGGCACAUAAA [Brourd 613 Mod 2- Jieux - Exclusion 1],113 nM,65.9 nM
AAGGUACGAGGAUAUACAUAGAUACAAACACAUGUGGAUGUACAUGAGGAUCACCCAUGUAGAAGGCGUAUAUA [AJ 22],84.7 nM,58.6 nM
AAAAAACAUGAGGAUCACCCAUGUGAGGAUAUGCAAAACCCAAAUAAAAAGAGAAAAAGCAGAAGGCACAACAA [wbt round 1 mod 3],13.8 nM,15.7 nM
GAAAAGUCAGGAUAUGCAGAAAAAAAAACGAAAAAAAAACUGCAGAAGGGACAUGAGGAUCACCCAUGUUAAAA [Mat - Exclusion 4 - Mayanna - D127],31.2 nM,41.5 nM
AAAAUACAUGAGGAUCACCCAUGUUAGGAUAUCGGAUAAAUAAAAUAAAAUAAAAUAACGAGAAGGGACAAUAA [Exclusion1 Malc#2],31.6 nM,24.6 nM
UAUGAGCGAGGAUAUGCUUGGGACUGUCGGAAGGUGGCGGGACAUGAGGAUCACCCAUGUAGAAGGCGCGAGCG [Harteesian Tree],67.4 nM,59.8 nM
